Holding throughout (experiment): SPR
The target in test [1] is human FGFR4-Fc chimeric protein (UniProt P22455 22-369).
Test [2] deals with T1, mouse FGFR4-Fc chimeric protein (mouse, UniProt Q03142 17-366).
T1 chain: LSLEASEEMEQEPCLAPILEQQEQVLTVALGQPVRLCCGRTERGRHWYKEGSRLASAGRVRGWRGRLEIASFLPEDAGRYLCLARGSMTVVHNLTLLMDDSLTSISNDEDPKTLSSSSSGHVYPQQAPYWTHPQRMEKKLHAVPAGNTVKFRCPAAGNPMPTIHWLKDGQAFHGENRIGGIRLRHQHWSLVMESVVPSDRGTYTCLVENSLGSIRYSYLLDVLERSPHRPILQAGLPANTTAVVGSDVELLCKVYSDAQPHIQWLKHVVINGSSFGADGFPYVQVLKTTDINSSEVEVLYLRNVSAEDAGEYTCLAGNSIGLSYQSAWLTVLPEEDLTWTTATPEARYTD

The target in a further test is Cynomolgus FGFR4 (cynomolgus monkey).

human FGFR4-Fc chimeric protein, sequence (P22455 22-369, change not shown): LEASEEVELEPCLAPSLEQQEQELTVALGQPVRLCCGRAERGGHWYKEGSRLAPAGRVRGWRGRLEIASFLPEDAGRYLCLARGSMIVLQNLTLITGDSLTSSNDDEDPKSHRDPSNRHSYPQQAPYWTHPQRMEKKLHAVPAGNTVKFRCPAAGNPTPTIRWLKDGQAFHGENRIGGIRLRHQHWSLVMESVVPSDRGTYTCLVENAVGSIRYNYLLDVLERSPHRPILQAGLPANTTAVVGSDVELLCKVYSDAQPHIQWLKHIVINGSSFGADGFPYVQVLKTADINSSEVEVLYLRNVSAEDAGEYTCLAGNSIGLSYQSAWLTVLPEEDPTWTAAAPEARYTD

B1: chimeric LD1 (chLD1) (antibody, V domains shown)
VH: EVQLQQPGAVLVRPGTSVKLSCKASGYTFTNHWMNWVKQRPGQGLEWIGMIHPSDSETTLDQKFKDKATLTVDKSSSTAYMQLNRPTSEDSAVYYCTRGDISLFDYWGQGTTVTVSS
VL: DIQMTQTTSSLSASLGDRVTITCRTSQDISNFLNWYQQKPDGTFKILISYTSRLHSGVPSRFSGSGSGTDYSLTISTLEQEDFATYFCQQGNALPYTFGGGTKLEIE
On to B1, for which the Kd in test [1] and in test [2] was 0.7 nM in each case.

B2: LD1 (antibody, V domains shown)
VH: EVQLQQPGAVLVRPGTSVKLSCKASGYTFTNHWMNWVKQRPGQGLEWIGMIHPSDSETTLDQKFKDKATLTVDKSSSTAYMQLNRPTSEDSAVYYCTRGDISLFDYWGQGTTVTVSS
VL: DIQMTQTTSSLSASLGDRVTITCRTSQDISNFLNWYQQKPDGTFKILISYTSRLHSGVPSRFSGSGSGTDYSLTISTLEQEDFATYFCQQGNALPYTFGGGTKLEIE
On to B2, for which, in the test with Cynomolgus FGFR4, the affinity, expressed as Kd, was 0.8 nM. This counts as sub-nanomolar.

The values are drawn from patent US20160237157A1 (published 2016).
